Measurements as given in patent US20230212268A1 (UNM RAINFOREST INNOVATIONS, published 2023).
“And” between values parts separate entries of the source, which are not always exact repeats. Equal entries are not always repeated. Where two headings read alike, the source gives them in different places.

Assays:
[1] = target: T1, recombinant EBOV glycoprotein (EBOV (Zaire ebolavirus), UniProt Q05320 33-650); assay: ELISA, GP coated
T1 sequence: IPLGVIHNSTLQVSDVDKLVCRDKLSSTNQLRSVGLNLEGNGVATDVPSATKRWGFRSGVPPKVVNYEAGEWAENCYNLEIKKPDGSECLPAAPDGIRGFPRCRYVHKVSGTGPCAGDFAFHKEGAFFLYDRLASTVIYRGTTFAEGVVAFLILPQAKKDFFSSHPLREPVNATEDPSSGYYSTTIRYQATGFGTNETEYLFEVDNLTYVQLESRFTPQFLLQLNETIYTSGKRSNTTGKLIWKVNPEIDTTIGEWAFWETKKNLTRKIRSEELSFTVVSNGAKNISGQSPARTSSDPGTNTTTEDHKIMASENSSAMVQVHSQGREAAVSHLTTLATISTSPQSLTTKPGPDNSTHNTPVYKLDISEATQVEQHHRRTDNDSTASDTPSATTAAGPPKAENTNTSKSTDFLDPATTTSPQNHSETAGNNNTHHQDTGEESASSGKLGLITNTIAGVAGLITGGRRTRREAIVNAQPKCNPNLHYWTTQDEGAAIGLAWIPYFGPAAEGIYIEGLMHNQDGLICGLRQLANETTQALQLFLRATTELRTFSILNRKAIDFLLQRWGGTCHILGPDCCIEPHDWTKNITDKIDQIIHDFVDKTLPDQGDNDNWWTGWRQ

[2] = target: T2, recombinant RESTV glycoprotein (RESTV (Reston ebolavirus), UniProt Q66799 34-651); assay: ELISA, GP coated
T2 sequence: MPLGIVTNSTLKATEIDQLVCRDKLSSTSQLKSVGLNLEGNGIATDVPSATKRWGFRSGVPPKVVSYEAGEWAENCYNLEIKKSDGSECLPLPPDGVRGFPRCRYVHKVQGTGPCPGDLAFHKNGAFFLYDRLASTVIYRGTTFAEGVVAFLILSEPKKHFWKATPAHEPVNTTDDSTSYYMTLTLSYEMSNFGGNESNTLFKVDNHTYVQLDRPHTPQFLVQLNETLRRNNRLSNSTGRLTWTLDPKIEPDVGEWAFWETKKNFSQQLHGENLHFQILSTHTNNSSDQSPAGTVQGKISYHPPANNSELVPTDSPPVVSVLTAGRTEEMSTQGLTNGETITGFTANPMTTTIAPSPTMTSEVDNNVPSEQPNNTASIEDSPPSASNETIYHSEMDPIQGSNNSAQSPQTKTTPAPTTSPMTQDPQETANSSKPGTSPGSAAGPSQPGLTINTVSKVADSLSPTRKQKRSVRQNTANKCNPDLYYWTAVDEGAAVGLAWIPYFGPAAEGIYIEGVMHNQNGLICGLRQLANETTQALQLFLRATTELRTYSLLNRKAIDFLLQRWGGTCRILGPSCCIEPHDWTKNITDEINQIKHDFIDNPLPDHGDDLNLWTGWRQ

[3] = target: T3, recombinant TAFV glycoprotein (TAFV (Tai Forest virus), UniProt Q66810 33-650); assay: ELISA, GP coated
T3 sequence: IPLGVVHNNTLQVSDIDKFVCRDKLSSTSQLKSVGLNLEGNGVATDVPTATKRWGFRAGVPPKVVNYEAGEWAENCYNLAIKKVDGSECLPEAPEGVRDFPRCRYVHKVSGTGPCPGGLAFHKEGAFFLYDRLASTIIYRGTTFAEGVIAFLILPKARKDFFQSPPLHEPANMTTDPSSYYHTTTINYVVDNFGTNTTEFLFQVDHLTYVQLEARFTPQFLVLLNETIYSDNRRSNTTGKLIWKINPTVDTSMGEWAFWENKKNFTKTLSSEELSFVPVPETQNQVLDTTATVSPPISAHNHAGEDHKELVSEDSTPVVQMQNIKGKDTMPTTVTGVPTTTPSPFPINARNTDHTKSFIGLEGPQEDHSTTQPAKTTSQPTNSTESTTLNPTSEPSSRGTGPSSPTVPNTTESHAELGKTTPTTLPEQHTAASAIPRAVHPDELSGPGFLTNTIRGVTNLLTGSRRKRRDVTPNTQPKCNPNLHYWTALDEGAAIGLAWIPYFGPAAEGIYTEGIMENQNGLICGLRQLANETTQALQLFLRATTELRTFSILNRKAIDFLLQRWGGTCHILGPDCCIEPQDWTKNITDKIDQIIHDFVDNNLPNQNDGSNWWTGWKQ

[4] = target: T4, recombinant SUDV glycoprotein (SUDV (Sudan ebolavirus), UniProt Q7T9D9 33-650); assay: ELISA, GP coated
T4 sequence: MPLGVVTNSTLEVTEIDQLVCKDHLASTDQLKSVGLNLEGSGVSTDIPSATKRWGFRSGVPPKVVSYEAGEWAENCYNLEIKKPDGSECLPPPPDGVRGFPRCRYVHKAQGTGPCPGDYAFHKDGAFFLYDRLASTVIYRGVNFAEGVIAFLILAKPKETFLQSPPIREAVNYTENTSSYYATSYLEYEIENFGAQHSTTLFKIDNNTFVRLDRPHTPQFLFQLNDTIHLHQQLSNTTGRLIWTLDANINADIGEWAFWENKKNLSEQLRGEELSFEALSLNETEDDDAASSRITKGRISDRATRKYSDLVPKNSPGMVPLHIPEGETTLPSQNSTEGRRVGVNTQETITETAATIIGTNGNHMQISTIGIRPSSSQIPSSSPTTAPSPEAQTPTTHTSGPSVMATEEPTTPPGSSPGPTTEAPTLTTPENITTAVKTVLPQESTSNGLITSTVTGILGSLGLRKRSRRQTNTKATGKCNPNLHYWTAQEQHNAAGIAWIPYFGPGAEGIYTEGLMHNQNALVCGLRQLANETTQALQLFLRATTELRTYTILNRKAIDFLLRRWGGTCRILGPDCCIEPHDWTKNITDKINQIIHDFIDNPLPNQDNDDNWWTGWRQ

[5] = target: T5, recombinant MARV glycoprotein (MARV (marburgvirus, Ravn), UniProt Q1PDC7 19-648); assay: ELISA, GP coated
T5 sequence: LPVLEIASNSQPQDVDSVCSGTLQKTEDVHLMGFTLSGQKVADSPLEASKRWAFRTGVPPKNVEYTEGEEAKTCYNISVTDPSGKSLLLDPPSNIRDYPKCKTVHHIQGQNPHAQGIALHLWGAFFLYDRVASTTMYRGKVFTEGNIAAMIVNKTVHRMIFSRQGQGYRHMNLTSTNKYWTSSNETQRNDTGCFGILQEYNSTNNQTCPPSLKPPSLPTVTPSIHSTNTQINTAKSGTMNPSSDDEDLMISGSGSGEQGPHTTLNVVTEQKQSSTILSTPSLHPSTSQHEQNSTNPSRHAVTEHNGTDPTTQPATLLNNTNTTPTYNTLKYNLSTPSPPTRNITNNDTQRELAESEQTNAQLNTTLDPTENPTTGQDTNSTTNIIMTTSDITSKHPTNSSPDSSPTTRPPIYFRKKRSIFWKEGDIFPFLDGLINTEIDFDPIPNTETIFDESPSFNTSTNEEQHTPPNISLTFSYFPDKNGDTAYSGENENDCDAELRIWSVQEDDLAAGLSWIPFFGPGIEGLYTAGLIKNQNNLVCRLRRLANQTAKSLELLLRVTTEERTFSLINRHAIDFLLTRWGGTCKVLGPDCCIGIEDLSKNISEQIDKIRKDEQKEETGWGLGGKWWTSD

[6] = target: T2, recombinant RESTV glycoprotein; assay: maximal binding from ELISA dose-response fit
[7] = target: T3, recombinant TAFV glycoprotein; assay: maximal binding from ELISA dose-response fit
[8] = target: T4, recombinant SUDV glycoprotein; assay: maximal binding from ELISA dose-response fit
[9] = target: T1, recombinant EBOV glycoprotein; assay: maximal binding from ELISA dose-response fit
[10] = target: T5, recombinant MARV glycoprotein; assay: maximal binding from ELISA dose-response fit
[11] = target: T2, recombinant RESTV glycoprotein; assay: ELISA dose response, GP coated
[12] = target: T3, recombinant TAFV glycoprotein; assay: ELISA dose response, GP coated
[13] = target: T4, recombinant SUDV glycoprotein; assay: ELISA dose response, GP coated
[14] = target: T1, recombinant EBOV glycoprotein; assay: ELISA dose response, GP coated
[15] = target: T5, recombinant MARV glycoprotein; assay: ELISA dose response, GP coated
[16] = target: T3, recombinant TAFV glycoprotein

B1: EbovGPscFv16-1 (scFv)
scFv: MAWSHPQFEKTGSGGAELVRSGASVKLSCTASGFNIKDDYMHWVKQRPEQGLKWIGWIDPENGDTEYASKLQGKATITADTSSNTAYLQLSSLTSEDTAVYYCARPIYYYGSSHWYFDVWGTGTTVTVSSGGGGSGGGGSGGGGSGGGGSLSLPVSLGDQASISCRSSQSLVHSNGNTYLHWYLQKPGQSPKLLIYKVSNRFSGVPDRFSGSGSGTDFTLKISRVEAEDLGVYFCSQSTHVPWTFGGGTKLEVKRADAAPTVSIFPPSSEQLTSGGASVVCFLNNFTHCQELQQDECS
**Q.** Does B1 bind [1]?
**A.** binds

B2: EbovGPscFv13-1 (scFv)
scFv: MAWSHPQFEKTGSGQVQLQQSGAELVKPGASVKLSCKASGYTFTEYTIHWVKQRSGQGLEWIGWFYPGSGSIKYDEKFKDKATLTADKSSSTVYMELSRLTSEDSAVYFCARHEPYYYGSSYEGPFDYWGQGTTLTVSSGGGGSGGGGSGGGGSGGGGSSPLSVSAGEKVTMSCKSSQSLLNSGNQKNYLAWYQQKPGQPPKLLIYGASTRESGVPDRFTGSGSGTDFTLTISSVQAEDLAVYYCQNDHSYPLTFGAGTKLELKRADAAPTVSIFPPSSEQLTSGGASVVCFLNNFTHCQELQQDECS
**Q.** Does B2 bind [1]?
**A.** binds

B3: EbovGPscFv35-2 (scFv)
scFv: MAWSHPQFEKTGSGDVKLQESGPGLVKPSQSLSLTCSVTGYSITSGYYWNWIRQFPGNKLEWMGYISYDGSNNYNPSLKNRISITRDTSKNQFFLKLNSVTTEDTATYYCARESPYYGSSHWYFGVWGTGTTVTVSSGGGGSGGGGSGGGGSGGGGSASLSASVGETVTITCRTSENIYSYLAWYQQKQGKSPQLLVYNAKTLAEGVPSRFSGSGSGTQFSLKINSLQPEDFGSYYCQHHYGIPPWTFGGGTKLEIKRADAAPTVSIFPPSSEQLTSGGASVVCFLNNFTHCQELQQDECS
**Q.** Does B3 bind [1]?
**A.** binds

B4: EbovGPscFv27-5 (scFv)
scFv: MAWSHPQFEKTGSGQVQLQQSGAELVKPGASVKSSCTATGFNIKDYYIHWVKQRTEQGLEWIGRIDPEDGETKYAPKFQGKATITADISPNTAYLQPSSLTSEDTAVYYCTRGGYYGPWYFDVWGTGTTVTVSSGGGGSGGGGSGGGGSGGGGSASLSVSVGETVTITCRASENIYSYLAWYQQKQGKSPQLLVYNAKTLAEGVPSRFSGSGSGTQFSLKINNLQPEDFGSYYCQRHYDTPYTFGGGTKLEIKRADAAPTVSIFPPSSEQLTSGGASVVCFLNNFTHCQELQQDECS
**Q.** Does B4 bind [2]?
**A.** no binding

**Q.** Does B4 bind [3]?
**A.** no binding

**Q.** Does B4 bind [4]?
**A.** no binding

**Q.** Does B4 bind [5]?
**A.** no binding

B5: EbovGPscFv22-1 (scFv)
scFv: MAWSHPQFEKTGSGQVQLQQPGTELVKPGASVKLSCKASGYTFTSYWMHWVKQRPGQGLEWIGNTNPSNGGTNYNEKFKSKATLTVDKSSNTAYMQLSSLTSEDSAVYYCARSVSGNFAYWGQGTLVTVSAGGGGSGGGGSGGGGSGGGGSLSLPVSLGDQASISCRSSQSLVHSNGNTYLHWYLQKPGQSPKLLIYKVSNRFSGVPDRFSGSGSGTDFTLKISRVEAEDLGVYFCSQSTHVPWTFGGGTKLEIKRADAAPTVSIFPPSSEQLTSGGASVVCFLNNFTHCQELQQDECS
**Q.** With B5 as the binder, how does the Bmax signal [6] read?
**A.** 320000 relative absorbance units

**Q.** What about the Bmax signal [7] of the same binder?
**A.** 270000 relative absorbance units

**Q.** What about the Bmax signal [8] of the same binder?
**A.** 280000 relative absorbance units

**Q.** And the Bmax signal [9]?
**A.** 370000 relative absorbance units

**Q.** What about the Bmax signal [10] of the same binder?
**A.** 250000 relative absorbance units

**Q.** What about the EC50 [11] of the same binder?
**A.** 9 µg/mL and < 12 µg/mL

**Q.** What about the EC50 [12] of the same binder?
**A.** 11.6 µg/mL and < 12 µg/mL

**Q.** And the EC50 [13]?
**A.** < 12 µg/mL and 7.94 µg/mL

**Q.** What about the EC50 [14] of the same binder?
**A.** < 12 µg/mL and 7.36 µg/mL

**Q.** What about the EC50 [15] of the same binder?
**A.** < 12 µg/mL and 6.58 µg/mL

**Q.** And the EC50 [16]?
**A.** 12 µg/mL
